Assay results reported in US20250339531A1, “DUX4 POLYPEPTIDES AND NUCLEIC ACIDS FOR TREATING INFLAMMATORY AND AUTOIMMUNE CONDITIONS” (Fred Hutchinson Cancer Center, priority 2021, published 2025).
Entries after “also recorded” stand apart in the source; their conditions may differ.

B1: CIC-DUX4 fusion: Kitra-SRS CIC-DUX4 fusion protein containing the terminal 98 amino acids of DUX4, doxycycline inducible (protein)
chain: MDYKDHDGDYKDHDIDYKDDDDKPPKRMRREPKKKRKVNLEGTSGGILQKEFWRNRIQYNQSQKDILQSWFQHDPFPDKAAREQLAKEIGVPESNIQVWFKNYRVKQRKLDYKCFSEKDQTQGHDQSQHLTQEYLPKEARQKQTFITWTQKNRLVQAFERNPFPDIATRKKLAEQTGLQESRIQMWFQKQRSLYLKKSRMEPMNLLVDDPNERPDATVGWHPINLFLPTDSSHYFSCSHSSSGHETLPPVLPSTQAPWDPFRFHVSQGPNVMIMQPTQAVQEGEKSDQPLIIPNHLLTLPILTKDLDTPTPFWLQYQEEHQNHKEHSGSGVPQVKSHSQPEPEHREQQPLNLGQFDISNILQRWDEICQALLAEWEPLKGTH
B2: mouse Dux: mouse ortholog of human DUX4, SEQ ID NO:15, doxycycline inducible codon altered SEQ ID NO:16 (protein, listed as Mus musculus)
chain: MAEAGSPVGGSGVARESRRRRKTVWQAWQEQALLSTFKKKRYLSFKERKELAKRMGVSDCRIRVWFQNRRNRSGEEGHASKRSIRGSRRLASPQLQEELGSRPQGRGMRSSGRRPRTRLTSLQLRILGQAFERNPRPGFATREELARDTGLPEDTIHIWFQNRRARRRHRRGRPTAQDQDLLASQGSDGAPAGPEGREREGAQENLLPQEEAGSTGMDTSSPSDLPSFCGESQPFQVAQPRGAGQQEAPTRAGNAGSLEPLLDQLLDEVQVEEPAPAPLNLDGDPGGRVHEGSQESFWPQEEAGSTGMDTSSPSDSNSFCRESQPSQVAQPCGAGQEDARTQADSTGPLELLLLDQLLDEVQKEEHVPVPLDWGRNPGSREHEGSQDSLLPLEEAVNSGMDTSIPSIWPTFCRESQPPQVAQPSGPGQAQAPTQGGNTDPLELFLYQLLDEVQVEEHAPAPLNWDVDPGGRVHEGSWESFWPQEEAGSTGLDTSSPSDSNSFFRESKPSQVAQRRGAGQEDARTQADSTGPLELLLFDQLLDEVQKEEHVPAPLDWGRNPGSMEHEGSQDSLLPLEEAANSGRDTSIPSIWPAFCRKSQPPQVAQPSGPGQAQAPIQGGNTDPLELFLDQLLTEVQLEEQGPAPVNVEETWEQMDTTPDLPLTSEEYQTLLDML
B3: iNLS-CTD: 3×FLAG tag nls construct encoding terminal 86 amino acids of DUX4 (aa 339-424), SEQ ID NOS: 12 and 13 (protein)
chain: MDYKDHDGDYKDHDIDYKDDDDKPKKKRKVNASASARQGQMQGIPAPSQALQEPAPWSALPCGLLLDELLASPEFLQQAQPLLETEAPGELEASEEAASLEAPLSEEEYRALLEEL
modifications: 3xFLAG tag and NLS
B4: longCTDmL1dL2: longCTD with first (L)LxxL(L) motif disrupted and second deleted, SEQ ID NOS: 10 and 11 (protein)
chain: MDYKDHDGDYKDHDIDYKDDDDKPPKRMRREPKKKRKVGRAPAQAGGLCSAAPGGGHPAPSWVAFAHTGAWGTGLPAPHVPCAPGALPQGAFVSQAARAAPALQPSQAAPAEGISQPAPARGDFAYAAPAPPDGALSHPQAPRWPPHPGKSREDRDPQRDGLPGPCAVAQPGPAQAGPQGQGVLAPPTSQGSPWWGWGRGPQVAGAAWEPQAGAAPPPQPAPPDASASARQGQMQGIPAPSQALQEPAPWSALPCGLLAAEAAASPEFLQQAQPLLETEAPGELEASEEAASLEAPLSEEEYRA

Key:
[1] = test system: interferon-stimulated genes IFIH1, ISG20, CXCL9, and CD74; test: IFNG induction of interferon-stimulated genes, RT-qPCR in MB135 cells with doxycycline-inducible transgenes; assay type: cell-based, human; settings: MB135 cells, doxycycline-induced transgene, continuous protocol, IFNG 16 h
Description: All myoblast experiments were conducted in immortalized MB135 or MB200 myoblast cell lines (isolated from a control or FSHD2 subject, respectively cultured in Ham's F-10 Nutrient Mix (Gibco) supplemented with 15% fetal bovine serum (Hyclone), 100 U/100 μg/ml penicillin/streptomycin (Gibco), 1 μM dexamethasone (Sigma), and 10 ng/ml recombinant human basic fibroblast growth factor (PeproTech). To differentiate the myoblasts to myotubes, media was changed to DMEM supplemented with 10 μg/ml insulin (Sigma) and 10 μg/ml transferrin (Sigma). Cell lines containing doxycycline-inducible transgenes were additionally cultured with 2 μg/mL puromycin (Sigma). Transgenes were induced with 1 μg/mL of doxycycline (Sigma) for 4 hours prior to other treatments for a total of 20 hrs. The Kitra-SRS cells (RRID:CVCL_YI69) were provided by Dr. H. Otani and Osaka University (Nakai et al., 2019) and were cultured in DMEM supplemented with 10% fetal bovine serum (Hyclone) and 100 U/100 μg/ml penicillin/streptomycin (Gibco). Biological replicates consisted of independent but parallel experiments, such as simultaneously stimulating three cell culture plates with IFNγ. Technical replicates consisted of repeat measurements of the same biological sample, such as loading the same biological sample in triplicate for analysis by RT-qPCR.
Myoblasts were transfected with either (final concentrations) 10 μM 2′,3′-cGAMP (Sigma Aldrich), 2 μg/mL poly(I:C) (Invitrogen), or 1 μg/mL 3′ppp-dsRNA RIG-I ligand (Dan Stetson Lab, UW) using Lipofectamine 2000 according to manufacturer's protocol, or were stimulated with 1000U IFNβ (PeproTech) or 200 ng/ml IFNγ (R+D Systems) by addition directly to cell culture medium. After 16 hours of immune stimulation, RNA was collected from cells using the NucleoSpin RNA Kit (Macherey-Nagel) according to manufacturer's instructions. RNA samples were quantified by nanodrop and 1 μg of RNA per sample was treated with DNase I Amplification Grade (Thermo Fisher), and then synthesized into cDNA using the Superscript IV First-Strand Synthesis System, including oligo dT primers (Invitrogen). qPCR was run in 384-well plates on an Applied Biosystems QuantStudio 6 Flex Real-Time PCR System (ABI) and analyzed in Microsoft Excel.

STAT1 = test: Anti-FLAG co-immunoprecipitation and western blot for STAT1; assay type: binding, human; settings: anti-FLAG IP from MB135 cells ± IFNG
Description: Centrifugation at 2500 rcf at 4° C. for 5 min pelleted the nuclei, supernatant was discarded, and nuclei resuspended in 1 mL IP buffer pH 7.4 (25 mM Tris-HCl pH 7.5, 175 mM NaCl, 1 mM EDTA, 0.2% NP-40, 5% glycerol) and incubated for 1 hour at 4° C. with rotation then spun at 21000 rcf for 10 minutes at 4° C. to pellet insoluble debris. Protein concentration was determined using the Pierce BCA Protein Assay Kit (ThermoFisher, 23225). An equivalent amount of protein per sample was pre-cleared with Dynabeads Protein G (Invitrogen) bound to mouse IgG (Abcam #131368) for 1 hour at 4° C. with rotation. FLAG-tagged constructs were then immunoprecipitated with Dynabeads Protein G beads coupled to mouse anti-FLAG M2 mAb (Sigma F3165) for 3 hours at 4° C. with rotation. Beads were washed 3× with 1 mL IP buffer and eluted by adding 2× NuPage LDS Sample Buffer (Thermo Fisher, diluted from 4× with PBS) to the beads and heating for 10 minutes at 70° C.
Antibodies against STAT1 [EPR4407] (ab109320), pSTAT1 Y701 [M135] (ab29045), pSTAT1 S727 [EPR3146] (ab109461), YBX1 [EP2708Y] (ab76149), PABPC1 (ab21060), hnRNPM [EPR13509 (B)] (ab177957), PRKDC [Y393] (ab32566), and HSP90AB1 [EPR16621] (ab203085) were purchased from Abcam. Antibodies against FLAG tag [M2] (F1804) and [M2] (F3146) were purchased from Sigma Aldrich. Antibodies against DDX3X [D19B4] (8192S), hnRNPK [R332] (4675S), TRIM28 [C42G12] […]

Row | Molecule | suppression of IFNG induction of ISGs (IFIH1, ISG20, CXCL9, CD74) [1] | suppression of IFNG induction of ISGs (IFIH1, ISG20, CXCL9, CD74) ([1]; listed as Dux) | suppression of IFNG induction of ISGs (IFIH1, ISG20, CXCL9, CD74) ([1]; listed as mouse DUX) | co-immunoprecipitation with STAT1 / phosphorylated STAT1 (STAT1) | suppression of IFNG induction of ISGs (IFIH1, ISG20, CXCL9, CD74) ([1]; listed as iDUX4aa339-424) | suppression of IFNG induction of ISGs (IFIH1, ISG20, CXCL9, CD74) ([1]; listed as iNLS CTD) | suppression of IFNG induction of ISGs (IFIH1, ISG20, CXCL9, CD74) ([1]; listed as iDUX4-CTDmL1dL2)
1 | B1 | suppressed IFNγ-induction of ISGs IFIH1, CXCL9, and CD74, although not ISG20 | – | – | – | – | – | –
2 | B2 | completely blocked the IFNG induction of these ISG genes | repress the panel of ISGs even more robustly than the full-length or CTD portion of human DUX4 | completely blocked | confirmed the co-immunoprecipitation of STAT1 and both phosphorylated pSTAT1-Y701 and pSTAT1-S727 | – | – | –
3 | B3 | suppresses a portion of the IFNG-induced ISG genes, CXCL9 and CD74 | – | – | – | maintained ISG suppression, though not as strongly on the IFIH1 and ISG20 genes | suppresses two of the four IFNG-induced | –
4 | B4 | does not suppress any of the IFNG-induced ISG genes | – | – | both show binding to STAT1; also recorded: STAT1 is associated | – | – | did not block the panel of ISGs
